Reference: the supplement of paper PMC6757056
± gives the standard deviation of the averaged measurements.

B1: library; a variant is named by its letters at N, in order (parent)
chain: GCUGUCACCGGUGUAUUACCCUAGUGGUCGACCGGUCUGAUGAGUCUNNNNNNAGACGAAACAGC

Tests used:
hypoxanthine [1] = variants of: B1; assay: normalized RNA/DNA level with ligand (relative to sTRSVctl = 100) (log10 (% of sTRSVctl)); ligand: hypoxanthine (xanthine aptamer); higher = less ribozyme self-cleavage, higher mRNA level; settings: ligand concentration (+) RNA-Seq: 5 mM, HEK293T, reporter: mCherry (pCS4076), ligand present: yes
Method in brief: (§1)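 Ribozyme switch library plasmids linked to reporters were introduced into HEK293T cells at 4 µg per 6-well well, with ligand, if any, added 1 h before. Total RNA was extracted with EDTA 72 h later, reverse-transcribed, amplified, barcoded and sequenced. RNA level was computed from RNA over DNA reads relative to a spiked-in non-cleaving sequence or the top sequences, then scaled and log-transformed. The top set was 25 sequences, values were ×100 and log10, and the cutoff was ≥100 DNA reads.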

hypoxanthine [2] = variants of: B1; assay: normalized RNA/DNA level without ligand (relative to sTRSVctl = 100) (log10 (% of sTRSVctl)); ligand: hypoxanthine (xanthine aptamer); higher = less ribozyme self-cleavage, higher mRNA level; settings: HEK293T, reporter: mCherry (pCS4076), ligand present: no
Method in brief: as §1

hypoxanthine [3] = variants of: B1; assay: FACS-Seq fitted mean relative fluorescence mCherry/BFP without ligand (log10 relative fluorescence); ligand: hypoxanthine (xanthine aptamer); higher = higher reporter protein expression; settings: HEK293T, ligand present: no
Method in brief: (§2)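 Fluorescence is reported as a normalized fitted mean of sorted-bin read counts. Lentivirally transduced HEK293T libraries (mCherry ribozyme-switch reporter, EF1α-BFP marker) were enriched, treated with or without ligand for 48 h, and sorted into 6 mCherry/BFP bins for MiSeq sequencing of PCR-amplified genomic DNA. The normal fit was on log10(mCherry/BFP), scaled to five spiked-in control ribozymes.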

hypoxanthine [4] = variants of: B1; assay: FACS-Seq fitted mean relative fluorescence mCherry/BFP with ligand (log10 relative fluorescence); ligand: hypoxanthine (xanthine aptamer); ligand concentration (+) FACS-Seq: 5 mM; higher = higher reporter protein expression; settings: HEK293T, ligand present: yes
Method in brief: as §2

Row | Variant | normalized RNA/DNA level with ligand (log10) (hypoxanthine [1]) | normalized RNA/DNA level without ligand (log10) (hypoxanthine [2]) | FACS-Seq fitted mean (log10) (hypoxanthine [3]) | FACS-Seq fitted mean (log10) (hypoxanthine [4])
1 | GAAGUA | 1.88 ± 0.05 | 1.741 ± 0.0072 |  | 
2 | GAAGUC | 1.97 ± 0.022 | 1.87 ± 0.035 |  | 
3 | CUUCAC | 1.98 ± 0.022 | 1.89 ± 0.038 | 0.798 ± 0.0035 | 0.7261 ± 0.0054
4 | UUUAUU | 1.9334 ± 0.00045 | 1.86 ± 0.047 | 0.761 ± 0.032 | 0.799 ± 0.067
5 | UUUAUA | 1.93 ± 0.024 | 1.849 ± 0.0039 | -0.64 ± 0.014 | -0.329 ± 0.11
6 | UAAGAU | 1.907 ± 0.0056 | 1.72 ± 0.057 |  | 
7 | CAAAAU | 1.88 ± 0.035 | 1.763 ± 0.0036 |  | 
8 | UAAAAG | 1.87 ± 0.025 | 1.627 ± 0.011 |  | 
9 | AAAAUA | 1.909 ± 0.018 | 1.777 ± 0.015 |  | 
10 | AAAAUC | 1.94 ± 0.023 | 1.92 ± 0.041 |  | 
11 | GUGUUG | 1.83 ± 0.048 | 1.34 ± 0.11 | 0.222 ± 0.012 | 0.559 ± 0.033
12 | CUUUUA | 1.92 ± 0.051 | 1.77 ± 0.043 | 0.647 ± 0.044 | 0.318 ± 0.12
13 | GUUCGU | 1.98 ± 0.087 | 1.887 ± 0.01 | 0.476 ± 0.02 | 0.538 ± 0.014
14 | GUUACC | 1.91 ± 0.057 | 1.882 ± 0.018 | -0.307 ± 0.2 | -0.559 ± 0.021
15 | GUUACU | 1.946 ± 0.0064 | 1.89 ± 0.06 | 0.523 ± 0.11 | 0.466 ± 0.036
16 | GUUACG | 1.88 ± 0.03 | 1.59 ± 0.027 | 0.564 ± 0.075 | 0.566 ± 0.043
17 | UAACAC | 1.91 ± 0.05 | 1.7 ± 0.053 |  | 
18 | UAACAU | 1.919 ± 0.013 | 1.78 ± 0.024 |  | 
19 | AUUGAC | 1.914 ± 0.01 | 1.816 ± 0.0025 | 0.697 ± 0.08 | 0.672 ± 0.11
20 | AUUGAU | 1.92 ± 0.07 | 1.73 ± 0.074 | 0.686 ± 0.037 | 0.657 ± 0.014

Row | Variant | normalized RNA/DNA level with ligand (log10) (hypoxanthine [1]) | normalized RNA/DNA level without ligand (log10) (hypoxanthine [2]) | FACS-Seq fitted mean (log10) (hypoxanthine [3]) | FACS-Seq fitted mean (log10) (hypoxanthine [4])
21 | AUUGAG | 1.82 ± 0.062 | 1.37 ± 0.029 | 0.25 ± 0.005 | 0.476 ± 0.0067
22 | GAAGGC | 1.889 ± 0.016 | 1.52 ± 0.044 |  | 
23 | GAAGGU | 1.91 ± 0.068 | 1.73 ± 0.06 |  | 
24 | GAACUG | 1.87 ± 0.05 | 1.519 ± 0.0031 |  | 
25 | GAACUC | 1.9377 ± 0.00012 | 1.9 ± 0.01 |  | 
26 | GUUUUU | 1.941 ± 0.0034 | 1.93 ± 0.05 | 0.142 ± 0.041 | 0.1 ± 0.015
27 | GUUUUC | 1.92 ± 0.025 | 1.952 ± 0.01 | -0.0599 ± 0.0079 | -0.0383 ± 0.14
28 | GUUUUG | 1.9 ± 0.084 | 1.567 ± 0.002 | 0.498 ± 0.038 | 0.551 ± 0.047
29 | AUUGCG | 1.857 ± 0.015 | 1.41 ± 0.065 | -0.0459 ± 0.021 | 0.458 ± 0.028
30 | GUUUGG | 1.92 ± 0.03 | 1.57 ± 0.06 | 0.231 ± 0.049 | 0.62263 ± 0.00024
31 | AUUUUG | 1.933 ± 0.0027 | 1.59 ± 0.083 | 0.224 ± 0.041 | 0.466 ± 0.012
32 | AUUUUU | 1.93 ± 0.054 | 1.88 ± 0.032 | 0.433 ± 0.019 | 0.378 ± 0.044
33 | UAAAUC | 1.93 ± 0.044 | 1.97 ± 0.028 |  | 
34 | GUUAAC | 1.95 ± 0.021 | 1.8064 ± 0.0016 | 0.164 ± 0.008 | -0.269 ± 0.1
35 | GUUAAU | 1.9 ± 0.02 | 1.8 ± 0.067 | 0.528 ± 0.024 | 0.566 ± 0.0099
36 | UUUUCC | 1.94 ± 0.03 | 1.935 ± 0.013 | -0.155 ± 0.032 | 0.362 ± 0.077
37 | AUUUAA | 1.901 ± 0.019 | 1.81 ± 0.051 | 0.629 ± 0.027 | 0.649 ± 0.015
38 | AUUUGA | 1.91 ± 0.033 | 1.6633 ± 0.00044 | 0.636 ± 0.085 | 0.602 ± 0.16
39 | AUUUGC | 1.91 ± 0.043 | 1.783 ± 0.0061 | 0.485 ± 0.047 | 0.704 ± 0.052
40 | AUUUGU | 1.923 ± 0.01 | 1.638 ± 0.013 | 0.6123 ± 2.1e-06 | 0.723 ± 0.041
